Results: patent publication US20250134969A1 (CASE WESTERN RESERVE UNIVERSITY, published 2025)
Ends that are not written are not given here.

Target: T1, bovine serum albumin (bovine, UniProt P02769 25-607)
T1 construct: Negative control surface; also called BSA
Assay: BioFlux microfluidic adhesion, RhB-labeled “VBP+CBP”-decorated liposomes flowed at 25 dyn/cm^2 over albumin-coated channels, fluorescence microscopy
Protocol: The “VBP+CBP”-decorated nanoparticles and control (undecorated) nano-particles were evaluated for their specific adhesion capabilities utilizing a BioFlux 200 microfluidic system (Fluxion Biosciences) and observed under inverted fluorescence microscope imaging. This system allows simulation of a physiologically relevant vascular flow environment. Here, the microfluidic channels were incubated with either 0.3 wt % bovine serum albumin (BSA) in water or 40 μg/mL equine type 1 fibrillar collagen and 10 μg/mL vWF in 20 μM acetic acid for 1.5 h. Unbound albumin and collagen were removed with a saline rinse. […] Fluorescence microscopy imaging of particle Rhodamine B label was used to quantify the extent of particle adhesion to the coated surfaces. Thrombin release kinetics was measured by sealing the column-separated t-TLNPs in a MWCO 100 K dialysis bag, placing the bag in a TBS reservoir, and removing aliquots from the reservoir at predefined time points over the course of 6 h (fresh TBS was added back to the reservoir appropriately after each aliquot removal). […] Thrombin concentrations from the collected aliquots were evaluated using a human thrombin ELISA and plotted over time to determine the release profile. […]

T1 sequence (P02769 25-607 limits assumed): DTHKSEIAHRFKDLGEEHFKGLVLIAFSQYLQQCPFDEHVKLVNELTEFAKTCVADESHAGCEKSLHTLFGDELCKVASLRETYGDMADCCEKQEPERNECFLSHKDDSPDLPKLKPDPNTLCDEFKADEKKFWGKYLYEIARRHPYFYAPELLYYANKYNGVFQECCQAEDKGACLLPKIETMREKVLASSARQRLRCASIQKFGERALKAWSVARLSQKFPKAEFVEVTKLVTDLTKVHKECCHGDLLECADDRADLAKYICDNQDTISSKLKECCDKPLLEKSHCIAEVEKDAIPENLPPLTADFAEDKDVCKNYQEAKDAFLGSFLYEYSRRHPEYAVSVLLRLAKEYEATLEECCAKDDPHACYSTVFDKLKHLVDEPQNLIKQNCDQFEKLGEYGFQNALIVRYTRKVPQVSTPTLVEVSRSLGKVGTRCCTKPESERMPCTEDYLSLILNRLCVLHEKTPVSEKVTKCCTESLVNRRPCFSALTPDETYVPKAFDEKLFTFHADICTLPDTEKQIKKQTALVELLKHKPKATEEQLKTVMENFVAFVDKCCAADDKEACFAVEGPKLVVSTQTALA

binding result: no binding
B1: vWF-binding peptide (VBP), cysteinylated, CTRYLRIHPQSWVHQI, conjugated to DSPE-PEG2K and displayed on liposomal nanoparticles (peptide)
peptide: C(DSPE‑PEG2000‑maleimide)TRYLRIHPQSWVHQI
notes: In every adhesion assay the peptide stood on the surface of liposomes (1.25 mol % DSPE-PEG2K-VBP) together with CBP (1.25 mol %); also called DSPE-PEG2K-VBP
